Measurements reported in US20160220669A1 (Hoffmann-La Roche, published 2016).
Positions count from the first letter of the chain named.

B1: Mab 2F11 (antibody, V domains shown)
VH: QVQLKESGPGLVAPSQSLSITCTVSGFSLTTYDISWIRQSPGKGLEWLGVIWTDGGTNYNSPFMSRLSIRKDNSKSQVFLKMNRLQTDDTAIYYCVRDQRLYFDVWGAGTTVTVSS
VL: NIVMTQSPKSMSMSVGERVTLNCKASEDVNTYVSWYQQQPEQSPKLLIYGASNRYTGVPDRFTGGGSTTDFTLTISSVQAEDLADYFCGQSFSYPTFGTGTKLEIK
B2: Mab 1G10 (antibody, V domains shown)
VH: B1 VH with Q1R, T31S, T53S, D54G, S68R, R70S, N73D, K75R, M82V, Q99L
VL: KIVMTQSPKSMSVSVGERVSLSCKASEDVGTYVSWYQQKPEQSPKLLIYGSSNRYTGVPDRFTGSGSATDFTLTISSVQAEDLADYSCGQSFTYPTFGTGTKLEIK
B3: Mab 2E10 (antibody, V domains shown)
VH: QVQLKESGPGLVAPSKSLSITCTVSGSSLDSFDISWIRQSPGKGLEWLGVIWTGGGTNYNSGFMSRLRITKDNSKSQVLLKMNSLQSDDTAIYYCVRDPRLYFDVWGAGTTVTVSS
VL: B1 VL with N22S, N30V, Q39K, E41D, G65S, T68A, F87Y, S91T
B4: Mab 2H7 (antibody, V domains shown)
VH: B3 VH with S40P, T70S, L79F, N83S
VL: B1 VL with N22S, N30V, Q39K, G65S, T68A, V78I, F87Y, S91T

Target: human wildtype CSF-1R (full-length) (human, UniProt P07333 20-972)
Test: cell-based or functional assay

Binder	% inhibition 10 µg/ml antibody concentration (BeWo cells, CSF-1 induced growth)
B1	70%
B2	99%
B3	102%
B4	103%

Target: CSF-1R of cynomolgous monocytes (cynomolgous)
Test: cell-based or functional assay

Binder	% survival (cynomolgous monocytes with huCSF-1, 5 µg/ml antibody)
B1	4%
B2	2%
B3	17%
B4	8%
